In PMC6533321 (EJNMMI Research, 2019):
Each block holds one compound with its values, some of them ahead of it. Residues, ends and D or L forms follow the SMILES beside them.

How the values were obtained:
hSST2 = molecular target: T1, hSST2 (Homo sapiens, UniProt P30874); test: Competition binding against [^125I-Tyr^25]LTT-SS28 in HEK293-hSST2 cell membranes; details: mean ± sd, read-out: IC50 (displacement of [^125I-Tyr^25]LTT-SS28)
T1 construct: expressed in transfected cells; donated by Prof; S. Schultz, Jena
Method: (§1) The HEK293 cell line was transfected to stably express each of the hSST2/3/5 and the resultant HEK293-hSST2/3/5 cells used for receptor affinity assessments were donated by Prof. S. Schultz (Institute of Pharmacology and Toxicology, University Hospital, Friedrich Schiller University Jena, Germany). Cells were cultured at 37 °C and 5% CO2 in Dulbecco’s modified Eagle’s medium containing 10% fetal bovine serum, 100 U/mL penicillin, […] G418, as previously described. Culture reagents were from Gibco BRL, Life Technologies, and Biochrom KG Seromed.
(§2) [^125I-Tyr^25]LTT-SS28 served as radioligand and LTT-SS28 ([Leu^8,DTrp^22,Tyr^25]SS28) as reference compound [28, 30, 32]. Briefly, radioligand (70 μL, 50 pM corresponding to ≈ 40,000 cpm), test peptide (30 μL solution of increasing concentrations, 10^− 5–10^− 13 M), and membrane homogenates (200 μL) were added to each assay tube (total volume of 300 μL in binding solution: 50 mM HEPES pH 7.4, 1% BSA, 5.5 mM MgCl2, 35 μM bacitracin) in triplicates for each concentration point. Samples were incubated for 60 min at 22 °C in an Incubator-Orbital Shaker unit (MPM Instr. SrI). […]

hSST3 = molecular target: T2, hSST3 (Homo sapiens, UniProt P32745); test: Competition binding against [^125I-Tyr^25]LTT-SS28 in HEK293-hSST3 cell membranes; details: mean ± sd, read-out: IC50 (displacement of [^125I-Tyr^25]LTT-SS28)
T2 construct: expressed in transfected cells; donated by Prof; S. Schultz, Jena
Method: as §1
[^125I-Tyr^25]LTT-SS28 served as radioligand and LTT-SS28 ([Leu^8,DTrp^22,Tyr^25]SS28) as reference compound [28, 30, 32]. Briefly, radioligand (70 μL, 50 pM corresponding to ≈ 40,000 cpm), test peptide (30 μL solution of increasing concentrations, 10^− 5–10^− 13 M), and membrane homogenates (200 μL) were added to each assay tube (total volume of 300 μL in binding solution: 50 mM HEPES pH 7.4, 1% BSA, 5.5 mM MgCl2, 35 μM bacitracin) in triplicates for each concentration point. Samples were incubated for 60 min at 22 °C in an Incubator-Orbital Shaker unit (MPM Instr. SrI). […] Filters were collected, and their activity measured in a γ-counter (automated well-type multisample gamma counter; NaI(Tl) 3″ crystal, Canberra Packard Auto-Gamma 5000 series instrument).

hSST5 = hSST5 (Homo sapiens, UniProt P35346); test: Competition binding against [^125I-Tyr^25]LTT-SS28 in HEK293-hSST5 cell membranes; details: mean ± sd, read-out: IC50 (displacement of [^125I-Tyr^25]LTT-SS28)
Method: as §1, §2

[1] = Ex vivo biodistribution 60 min p.i.; details: female, NMRI-nude, mouse, in vivo, iv, total radioactivity
Method: (§3) A number of 2 × 10^6 MPC-mCherry cells were transplanted subcutaneously into the right shoulder of female NMRI-nude mice (8 to 10 weeks old, RjOrl:NMRI-Foxn1^nu /Foxn1^nu, Janvier Labs). […] Animals were sacrificed at 60 min post-injection (p.i.). […] The activity of the tissue samples was decay-corrected and calibrated by comparing the counts in tissue with the counts in aliquots of the injected radiotracer that had been measured in the γ-counter at the same time. The activity in the selected organs was expressed as percent-injected activity per organ (%IA) and the activity concentration in tissues and organs as standardised uptake value (SUV in [MBq activity/g tissue]/[MBq injected activity/g body weight]). Values are quoted as mean ± standard deviation for each group of animals.

[2] = test system: MPC-mCherry tumour-bearing NMRI-nude mice; test: Ex vivo biodistribution 60 min p.i.; details: female, mouse, in vivo, iv, 1 h
Method: as §3

[3] = test system: patient with a well-differentiated NET; test: PET/CT in a patient with well-differentiated NET; details: human, in vivo
Method: Despite octreotide therapy, the disease was progressing, and in 2015, the patient was treated with peptide receptor radionuclide therapy (PRRT), administering 5 GBq of [^90Y]Y-DOTA-TOC. […] Written informed consent was obtained from the patient in accordance with paragraph 37 of the updated Declaration of Helsinki, ‘Unproven Interventions in Clinical Practice’, and in accordance with the German Medical Products Act AMG §13 2b.

normal liver = details: in vivo; cited from earlier work

T2 sequence (P32745 whole entry): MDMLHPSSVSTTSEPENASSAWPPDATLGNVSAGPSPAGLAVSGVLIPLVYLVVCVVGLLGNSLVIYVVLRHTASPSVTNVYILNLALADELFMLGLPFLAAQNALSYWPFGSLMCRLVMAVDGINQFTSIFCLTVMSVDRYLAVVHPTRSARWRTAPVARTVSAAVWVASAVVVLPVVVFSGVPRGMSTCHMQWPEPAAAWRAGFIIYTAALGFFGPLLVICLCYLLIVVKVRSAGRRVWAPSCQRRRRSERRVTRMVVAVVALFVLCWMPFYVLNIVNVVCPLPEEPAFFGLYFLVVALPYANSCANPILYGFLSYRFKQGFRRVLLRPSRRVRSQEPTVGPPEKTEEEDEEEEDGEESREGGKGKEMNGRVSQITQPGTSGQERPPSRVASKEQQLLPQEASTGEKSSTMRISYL
T1 sequence (P30874 whole entry): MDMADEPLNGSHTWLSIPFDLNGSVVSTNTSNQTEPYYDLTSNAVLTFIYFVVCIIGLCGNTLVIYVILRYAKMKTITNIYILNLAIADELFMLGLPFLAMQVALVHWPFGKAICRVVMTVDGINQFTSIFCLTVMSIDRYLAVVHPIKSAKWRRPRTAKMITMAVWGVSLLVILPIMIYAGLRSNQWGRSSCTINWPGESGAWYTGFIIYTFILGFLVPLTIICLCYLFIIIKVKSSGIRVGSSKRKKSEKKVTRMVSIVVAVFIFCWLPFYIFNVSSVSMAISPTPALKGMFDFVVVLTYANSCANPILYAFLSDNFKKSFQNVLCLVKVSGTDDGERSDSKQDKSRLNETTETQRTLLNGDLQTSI
Sequence of hSST5 (P35346 whole entry): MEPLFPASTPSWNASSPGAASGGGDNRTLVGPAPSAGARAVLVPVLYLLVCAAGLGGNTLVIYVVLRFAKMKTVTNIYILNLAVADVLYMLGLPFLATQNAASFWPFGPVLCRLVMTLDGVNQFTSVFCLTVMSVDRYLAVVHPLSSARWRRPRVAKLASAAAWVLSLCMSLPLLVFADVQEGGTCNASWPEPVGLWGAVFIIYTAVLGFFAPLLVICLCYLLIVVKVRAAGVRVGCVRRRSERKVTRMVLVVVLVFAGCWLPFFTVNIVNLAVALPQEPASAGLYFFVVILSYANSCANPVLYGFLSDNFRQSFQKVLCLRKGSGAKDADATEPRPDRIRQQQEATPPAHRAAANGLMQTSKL

IC50 (hSST2): 0.05 ± 0.01 nM
IC50 (hSST3): 0.09 ± 0.01 nM
IC50 (hSST5): 0.17 ± 0.03 nM
SMILES: CC(C)C[C@H](NC(=O)[C@H](C)NC(=O)[C@@H]1CCCN1C(=O)[C@H](CC(N)=O)NC(=O)[C@H](CO)NC(=O)[C@H](CC(N)=O)NC(=O)[C@H](C)NC(=O)[C@@H](N)CO)C(=O)N[C@@H](C)C(=O)N1CCC[C@H]1C(=O)N[C@@H](CCCN=C(N)N)C(=O)N[C@@H](CCC(=O)O)C(=O)N[C@@H](CCCN=C(N)N)C(=O)N[C@@H](CCCCN)C(=O)N[C@@H](C)C(=O)NCC(=O)N[C@H]1CSSC[C@@H](C(=O)O)NC(=O)[C@H](CO)NC(=O)[C@H]([C@@H](C)O)NC(=O)[C@H](Cc2ccc(O)cc2)NC(=O)[C@H]([C@@H](C)O)NC(=O)[C@H](CCCCN)NC(=O)[C@@H](Cc2c[nH]c3ccccc23)NC(=O)[C@H](Cc2ccccc2)NC(=O)[C@H](Cc2ccccc2)NC(=O)[C@H](CC(N)=O)NC(=O)[C@H](CCCCN)NC1=O [LTT-SS28] (HELM PEPTIDE1{S.A.N.S.N.P.A.L.A.P.R.E.R.K.A.G.C.K.N.F.F.[dW].K.T.Y.T.S.C}$PEPTIDE1,PEPTIDE1,17:R3-28:R3$$$V2.0)

SMILES: C[C@@H](O)[C@@H]1NC(=O)[C@H](CCCCN)NC(=O)[C@@H](Cc2c[nH]c3ccccc23)NC(=O)[C@H](Cc2ccc(O)cc2)NC(=O)[C@@H](NC(=O)[C@@H](Cc2ccccc2)NC(=O)CN2CCN(CC(=O)O)CCN(CC(=O)O)CCN(CC(=O)O)CC2)CSSC[C@@H](C(=O)N[C@H](CO)[C@@H](C)O)NC1=O [[^68Ga]Ga-DOTA-TOC, metal not drawn]
SUV at 1 h ([1]; Blood radioactivity concentration): 0.06 ± 0.01 SUV
tissue uptake dose at 1 h ([1]; Brain uptake): 0.02 ± 0.01 %ID
tissue uptake dose at 1 h ([1]; Femur uptake): 0.04 ± 0.04 %ID
tissue uptake dose at 1 h ([1]; Kidneys uptake): 3.34 ± 0.87 %ID
tissue uptake dose at 1 h ([1]; Liver uptake): 0.45 ± 0.09 %ID
tissue uptake dose at 1 h ([1]; Lung uptake): 0.12 ± 0.01 %ID
tissue uptake dose at 1 h ([1]; Ovaries uptake): 0.02 ± 0.01 %ID
tissue uptake dose at 1 h ([1]; Pancreas uptake): 0.42 ± 0.06 %ID
tissue uptake dose at 1 h ([1]; Stomach uptake): 1.34 ± 0.39 %ID
tissue uptake dose at 1 h ([1]; Thyroid uptake): 0.01 %ID
dose excreted at 1 h ([1]; Urine calc.): 83.3 ± 3.73%
Intestine uptake [2]: 2.11±1.33 %IA
Tumour radioactivity concentration [2]: 4.52 ± 1.96 SUV
Tumour uptake [2]: 2.40±1.94 %IA
SUV, blood [3]: 2.0 SUV
SUV, liver [3]: 23.1 SUV
SUV, pituitary [3]: 23.7 SUV
SUV, target lesion [3]: 71.1 SUV
SUVmax of the liver, previous value reported (normal liver): 12.8 ± 3.6
